Assay results: the DeepSol protein solubility set

assay: soluble on expression in E. coli; label from the status in PepcDB or PDB records

| Sequence | soluble on expression in E. coli |
| --- | --- |
| VSAADTAEDLPEQFRIRRDKRARLLAQGRDPYPVAVPRTHTLAEVRAAHPDLPIDTATEDIVGVAGRVIFARNSGKLCFATLQDGDGTQLQVMISLDKVGQAALDAWKADVDLGDIVYVHGAVISSRRGELSVLADCWRIAAKSLRPLPVAHKEMSEESRVRQRYVDLIVRPEARAVARLRIAVVRAIRTALQRRGFLEVETPVLQTLAGGAAARPFATHSNALDIDLYLRIAPELFLKRCIVGGFDKVFELNRVFRNEGADSTHSPEFSMLETYQTYGTYDDSAVVTRELIQEVADEAIGTRQLPLPDGSVYDIDGEWATIQMYPSLSVALGEEITPQTTVDRLRGIADSLGLEKDPAIHDNRGFGHGKLIEELWERTVGKSLSAPTFVKDFPVQTTPLTRQHRSIPGVTEKWDLYLRGIELATGYSELSDPVVQRERFADQARAAAAGDDEAMVLDEDFLAALEYGMPPCTGTGMGIDRLLMSLTGLSIRETVLFPIVRPHSN | not soluble |
| VSFPSSPPALPAIVARFAVGRPVRAVWVNELGGVTFRVDSGMGAGCEFIKVARRGTADFANEARRLRWAAPYLAVPRVLGVGVDGDWAWLHTDALPGLSAVHPRWRASPQVAVPALGAGLRTLHDSLPVHSCPFDWSTASRLAKLAPARRAELGDSPPVDRLVVCHGDACSPNTILDDTGRCCGHVDFGNLGVADRWADLAVATLSLQWNFPDYPGQVRDDEFFAAYGVAPDPARIDYYRRLWQAEDDSSR | soluble |
| VSIDVPERADLEQVRGRWRNAVAGVLSKSNRTDSAQLGDHPERLLDTQTADGFAIRALYTAFDELPEPPLPGQWPFVRGGDPLRDVHSGWKVAEAFPANGATADTNAAVLAALGEGVSALLIRVGESGVAPDRLTALLSGVYLNLAPVILDAGADYRPACDVMLALVAQLDPGQRDTLSIDLGADPLTASLRDRPAPPIEEVVAVASRAAGERGLRAITVDGPAFHNLGATAATELAATVAAAVAYLRVLTESGLVVSDALRQISFRLAADDDQFMTLAKMRALRQLWARVAEVVGDPGGGAAVVHAETSLPMMTQRDPWVNMLRCTLAAFGAGVGGADTVLVHPFDVAIPGGFPGTAAGFARRIARNTQLLLLEESHVGRVLDPAGGSWFVEELTDRLARRAWQRFQAIEARGGFVEAHDFLAGQIAECAARRADDIAHRRLAITGVNEYPNLGEPALPPGDPTSPVRRYAAGFEALRDRSDHHLARTGARPRVLLLPLGPLAEHNIRTTFATNLLASGGIEAIDPGTVDAGTVGNAVADAGSPSVAVICGTDARYRDEVADIVQAARAAGVSRVYLAGPEKALGDAAHRPDEFLTAKINVVQALSNLLTRLGA | not soluble |
| VTDASVHPDELDPEYHHHGGFPEYGPASPGAGFGQFVATMRRLQDLAVAADPGDAVWDEAAERAAALVELLSPFEADEGKAPAGRTPGLPGMGSLLLPPWTVTRYGTDGVEMRGSFSRFHVGGNSAVHGGVLPLLFDHMFGMISHAAGRPISRTAFLHVDYRRITPIDVPLIVRGRVTNTEGRKAFVCAELFDSDETLLAEGNGLMVRLLPGQP | soluble |
| VTDILREIGMIARALDSISNIEFKELSLTRGQYLYLVRVCENPGIIQEKIAELIKVDRTTAARAIKRLEEQGFIYRQEDASNKKIKRIYATEKGKNVYPIIVRENQHSNQVALQGLSEVEISQLADYLVRMRKNVSEDWEFVKKGNTRNY | soluble |
| VTGAIDPNLFTDAVLQVAAAAGRDETLPMLTGIHMEIDGENVTLTATDRFRLALRRFTWSPANPEAKAKLLIPAKNLSDNARSLDSGSTEPVEIAVGTGENIGAEGLFGIHIDNRQTTTRMLDADFPNVSPLL | not soluble |
| VVIRVLFRPVSLIPVNNSSTPQSQGPISRRLALTALGFGVLAPNVLVACAGKVTKLAEKRPPPAPRLTFRPADSAADVVPIAPISVEVGDGWFQRVALTNSAGKVVAGAYSRDRTIYTITEPLGYDTTYTWSGSAVGHDGKAVPVAGKFTTVAPVKTINAGFQLADGQTVGIAAPVIIQFDSPISDKAAVERALTVTTDPPVEGGWAWLPDEAQGARVHWRPREYYPAGTTVDVDAKLYGLPFGDGAYGAQDMSLHFQIGRRQVVKAEVSSHRIQVVTDAGVIMDFPCSYGEADLARNVTRNGIHVVTEKYSDFYMSNPAAGYSHIHERWAVRISNNGEFIHANPMSAGAQGNSNVTNGCINLSTENAEQYYRSAVYGDPVEVTGSSIQLSYADGDIWDWAVDWDTWVSMSALPPPAAKPAATQIPVTAPVTPSDAPTPSGTPTTTNGPGG | not soluble |
| VVTLGYWDIRGLAHAIRLLLEYTETPYQERRYKAGPAPDFDPSDWTNEKEKLGLDFPNLPYLIDGDVKLTQSNAILRYIARKHNMCGETEVEKQRVDVLENHLMDLRMAFARLCYSPDFEKLKPAYLELLPGKLRQLSRFLGSRSWFVGDKLTFVDFLAYDVLDQQRMFVPDCPELQGNLSQFLQRFEALEKISAYMRSGRFMKAPIFWYTALWNNKKE | soluble |
| VVVGAERTELLLPLLRDKRVALVANATSVVGTEREHLLDNLLRQGVNVVKILGPEHGFRGDADAGATVKDERDVRTGIPIVSLYGKNKKPTPRMLADVDVLLFDMQDVGTRFFTYISTLHYVMEACAEEQKKLIVTDRPNPNDYVDGPILQDDCRSFVGVDPLPILHGLTIGELANMINGEGWLGKKEMKCDLTVVPMSGWKHGQEYALPVKPSPNLPTANAIAWYPSLCLFEATIMSVGRGTDFPFEVLGYPKKVFGSFVFVPRPIRGMDSNPLYKGRHCYGVDLRGEKAPRGLSLQLLIRYYQTARREGIKFVNRKQMFNLLAGTKELAQQIEKGRTEEQIRASWQSDLDKYHKLRKKYLLYPTPTE | soluble |
| VVVTDMGILAKRSVDGSLDIFVQSLSQGLPIANAKVDVVGRNGLSVAEGFTDLGGHVHLPKLGQLRREKRPLFYRVEKAGDVSFLPIGDWRRELDMSRFDIGGSNESEDPNTLSAYLFTDRGLYRPGETAHVASLVRSQSWGASLDGLPVKMVVTDPRGIDVLDRTFNLDSSGFNSLDFSSTEAAVAGEYTASLSLIRDKHNLTRLGEESFKVRDFEPDRIKVRVTLGATESGTSIGWLKPEEVSAKVQAEQLFGGPAGDRRVTGEMVLSPTDISFKELPGYYFGVQGE | not soluble |
| WKITDEQRQYYVNQFKTIQPDLNGFIPGSAAKEFFTKSKLPILELSHIWELSDFDKDGALTLDEFCAAFHLVVARKNGYDLPEKLPESLMPK | soluble |
| WSQNEGKSVIPVQITKENSAYLADALLLDTSKEAQDAVENHSMMLSAKELFPVLETMKQIRQYGDSTDKNYGYRDEGSMFNSGNTAMYINGVWASKLIDEKIDACYAPFPGKNGSTIASSSVCLGYIVGNTGNQETMDASVEFLKYMLSEKVQKRILLETGQMPSSPKIHLEEYKEQIPRMCNAVEAIRGADRIIEVPDNLWTADQLENFRNQIMEVLNGTLDEEQFCTNLYQ | not soluble |
| YEMSSVGVINLRNMYSTYDPTEVKGKINEGPPFSGSLFYKNIPYGNSSIELKVEMNSVEKANFFSGKRVDIFTLEYSPPSNSNIKKNSYGGITLSDGNRIDKKNIPVNIFIDGVQQKYSYTDISTVSTDKKEVTIQELDVKSRYYLQKHFNIYGFGDVKDFGRSSRFQSGFEEGNIIFHLNSGERISYNMFDTGHGDRESMLKKYSDNKTAYSDQLHIDIYLVKFNK | soluble |
| YHETVIYEAHVKGMTQTHPSIPPELRGTYAGLAHPVIIDHLNELNVTAVELMPVHQFLHDSRLLDLGLRNYWGYNTFGFFAPHHQYASTRQAGSAVAEFKTMVRSLHEAGIEVILDVVYNHTAEGNHLGPTINFRGIDNTAYYRLMDHDLRFYKDFTGTGNSLNARHPHTLQLIMDSLRYWVIEMHVDGFRFDLASTLARELHDVDRLSAFFDLVQQDPVVSQVKLIAEPWDVGEGGYQVGNFPGLWTEWNGKYRDTVRDYWRGEPATLGEFASRLTGSSDLYEATGRRPSASINFVTAHDGFTLNDLVSYNDKHNEANGENNRDGESYNRSWNCGVEGPTDDPDILALRARQMRNMWATLMVSQGTPMIAHGDEIGRTQYGNNNVYCQDSELSWMDWSLVDKNADLLAFARKATTLRKNHKVFRRRRFFEGEPIRSGDEVRDIAWLTPSGREMTHEDWGRGFDRCVAVFLNGEAITAPDARGERVVDDSFLLCFNAHDHDVEFVMPHDGYAQQWTGELDTNDPVGDIDLTVTATDTFSVPARSLLVLRKTL | soluble |
| YLFSSTAVASDESRPKIGLVLAGGGAKGAAHIGVLKALEEMHIPVDYITGTSMGAYVGGLYASGMSADEIEAFIDTVDWNSGFVDKVERSERQIRDKEYEDRYQIGTDIGFSFTELKAPKGFVQGQTMAKILRTTSDNIPYLNSFDQLPIPFRAVATDIEKLEPVVLDKGNLAEAMMASMSVPGALPPAEYDGRLLVDGGVVNNMPVDVV | not soluble |
| YLSDVISSPQFEQAKSPTTVVLGQDIAGEAVIADIAKMPHVLVAGTTGSGKSVGVNVMILSMLYKASPEDLRFIMIDPKMLELSIYEGIPHLLAEVVTDMKDASNALRWCVGEMERRYKLMSALGVRNVKGFNEKLKMAAEAGHPIHDPFWQEGDSMDTEPPLLEKLPYIVVVVDEFADLMMVVGKKVEELIARLAQKARAAGIHLILATQRPSV | not soluble |
| YLYVYKGVYATDEDVPVNPLTGERLRMGGNTSTQAYFKAGDPIWVDVNGDYIIDEKDKVIVGNSQPRMTGGISINLRYKAFSINTNCSFTLRRDIINKALADRFRAYGTPVAGKVNLTGSGALTPIEAYNFWTEDNIYAQYPNPFDYTRSSIIQPFRYDQTLFMEDGSYFKINGISVAYTIPKKMLDFFRISRCQLNFSMNNIYTFSKYSGINPENVNNLGYDTSGGYPNGRTVTFGVSMDF | not soluble |
| YPPSMDWRKKGNFVSPVKNQGSCGSCWTFSTTGALESAVAIATGKMLSLAEQQLVDCAQNFNNHGCQGGLPSQAFEYIRYNKGIMGEDTYPYKGQDDHCKFQPDKAIAFVKDVANITMNDEEAMVEAVALYNPVSFAFEVTNDFLMYRKGIYSSTSCHKTPDKVNHAVLAVGYGEENGIPYWIVKNSWGPQWGMNGYFLIERGKNMCGLAACASYPIPLV | soluble |
| YSFIGSPVFSREFNISEMREYYLSFFEARGHTRINRYPVVARWRDDIYLTIASIADFQPFVTSGQVPPPANPLTISQPCIRLNDLDSVGRSGRHLTNFEMMAHHAFNRRDNEIYWKEHTLELCDELLNSLKVNPLAVTYKEEPWAGGGNAGPCVEVIVHGLELATLVFMDLKTDKKGDIEIKGETYSKMDNYIVDTGYGLERFVWASRGSPTIYDALFPGIVNELMGLAGIEHELNDSEYANI | not soluble |
| YTEEFDPSKYGMADSYDEQGNYIFPEGFDPETNEWLEGFDEQRQAWEARYAESERRFQLHTVQIEKNRVAAAEAAAAGEATNYSSESAEAAPAAANTEAEGGSLASDEQLAALREKLAGN | not soluble |
